T1: Human BCMA (human, UniProt Q02223 1-54, limits assumed)
T1 construct: also called huBCMA; B-cell maturation antigen
T1 sequence (looked up): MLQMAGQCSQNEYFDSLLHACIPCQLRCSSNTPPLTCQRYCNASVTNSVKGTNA

B1: A02_Rd4_6nM_C01 (antibody, V domains shown)
VH: EVQLLESGGGLVQPGGSLRLSCAASGFTFSSYAMNWVRQAPGKGLEWVSAITASGGSTYYADSVKGRFTISRDNSKNTLYLQMNSLRAEDTAVYYCARYWPMSLWGQGTLVTVSS
VL: EIVLTQSPGTLSLSPGERATLSCRASQSVSAYYLAWYQQKPGQAPRLLMYDASIRATGIPDRFSGSGSGTDFTLTISRLEPEDFAVYYCQQYERWPLTFGQGTKVEIK
notes: IgG
B2: A02_Rd4_6nM_C23 (antibody, V domains shown)
VH: B1 VH with T52S, A53D, T58G, Y59W
VL: B1 VL with A31V, Y32E, E93A
notes: IgG
B3: A02_Rd4_6nM_C03 (antibody, V domains shown)
VH: B1 VH with T52S, A53D, S103D, L104I
VL: B1 VL with A31N, Y32L, E93Q, R94G
notes: IgG
B4: C01_Rd4_0.6nM_C06 (antibody, V domains shown)
VH: B1 VH with A33P, N35S, T52G, A53G, T58L, Y59P, S103D, L104S
VL: EIVLTQSPGTLSLSPGERATLSCRASEAVPSTYLAWYQQKPGQAPRLLIYDASSRAPGIPDRFSGSGSGTDFTLTISRLEPEDFAVYYCQQYSAFPLTFGQGTKVEIK
notes: IgG
B5: C01_Rd4_0.6nM_C09 (antibody, V domains shown)
VH: B1 VH with A33P, N35S, T52G, A53G, T58L, Y59P, S103D, L104S
VL: B4 VL with E27Q, A28S, P30S, T32L, Y33F, F95W
notes: IgG
B6: A02_Rd4_6nM_C07 (antibody, V domains shown)
VH: B1 VH with T52G, A53G, T58L, Y59P, S103D, L104S
VL: B1 VL with A31P
notes: IgG
B7: C01_Rd4_0.6nM_C03 (antibody, V domains shown)
VH: B1 VH with A33P, N35S, T52G, A53G, T58L, Y59P, S103D, L104S
VL: B4 VL with E27C, A28D, P30S, S93M, A94R, F95S
notes: IgG
B8: A02_Rd4_6nM_C04 (antibody, V domains shown)
VH: B1 VH with T52M, A53S, S57P, T58L, S103A
VL: B1 VL with Y32L, E93Q, R94V
notes: IgG
B9: A02_Rd4_6nM_C08 (antibody, V domains shown)
VH: B1 VH with T52L, A53D, L104P
VL: B1 VL with A31F, Y32L, E93G, R94S
notes: IgG
B10: A02_Rd4_6nM_C05 (antibody, V domains shown)
VH: B1 VH with T52F, S103T, L104P
VL: B1 VL with A31S, Y32S, E93Q
notes: IgG
B11: A02_Rd4_6nM_C26 (antibody, V domains shown)
VH: B1 VH with T52S, A53D
VL: B1 VL with A31S, Y32L, E93Q, R94V
notes: IgG
B12: A02_Rd4_6nM_C19 (antibody, V domains shown)
VH: B1 VH with T52S, A53D, T58R, Y59W, L104D
VL: B1 VL with A31V, Y32L, E93L, R94A
notes: IgG
B13: A02_Rd4_6nM_C10 (antibody, V domains shown)
VH: B1 VH with T52S, A53D, T58C, Y59W, S103T, L104P
VL: B1 VL with S30E, A31M, Y32S, E93A, R94H
notes: IgG
B14: C01_Rd4_0.6nM_C16 (antibody, V domains shown)
VH: B1 VH with A33P, N35S, T52G, A53G, T58L, Y59P, S103D, L104S
VL: B4 VL with E27Q, A28S, P30S, A94S, F95W
notes: IgG
B15: A02_Rd4_6nM_C16 (antibody, V domains shown)
VH: B1 VH with T52S, A53D, S54F, S103D, L104I
VL: B1 VL with A31D, Y32L, E93Q, R94T
notes: IgG; also called P5AC16
B16: A02_Rd4_6nM_C25 (antibody, V domains shown)
VH: B1 VH with T52S, A53D, T58R, Y59W, S103T, L104P
VL: B1 VL with A31S, Y32S, E93L, R94D
notes: IgG
B17: A02_Rd4_6nM_C22 (antibody, V domains shown)
VH: B1 VH with I51V, T52L, A53D, S103T, L104P
VL: B1 VL with A31S, Y32S, E93Q, R94V
notes: IgG

Residue numbers refer to the chain shown, from its start.

One assay concerns the target T2, Cynomolgus monkey BCMA (cynomolgus monkey).
T2 construct: Soluble analyte in SPR; also called cyBCMA; Cyno BCMA
Briefly: SPR, IgG immobilised, cyno BCMA analyte. The protocol:
(§1) All experiments were performed on a Bio-Rad Proteon XPR36 surface Plasmon resonance biosensor (Bio-Rad, Hercules, Calif.). […] The analysis temperature for the immobilization was 25° C. and the running buffer was HBS-T+(10 mM HEPES, 150 mM NaCl, 0.05% Tween-20, pH 7.4). Channels were activated in the analyte (horizontal) direction by injecting a mixture of 1 mM ECD and 0.25 mM NHS for 3 minutes at a flow rate of 30 μL/min. IgGs were immobilized on the activated spots by injecting them in the ligand (vertical) direction at 20 μg/mL in 10 mM Acetate pH 4.5 buffer for 1.5 minutes at […]. The activated surfaces were blocked by injecting 1M ethanolamine, pH 8.5 in the analyte direction for 3 minutes at 30 μL/min.
(§2) The analysis temperature for the BCMA binding analysis was 37° C. or 25° C. in a running buffer of HBS-T+, supplemented with 1 mg/mL BSA. A kinetic titration method was employed for the interaction analysis as described in Abdiche, et al. Human BCMA (huBCMA) or cynomolgus monkey BCMA (cyBCMA) analyte was injected in the analyte direction using a series of injections from low to high concentration. The concentrations used were 0.08 nM, 0.4 nM, 2 nM, 10 nM and 50 nM (a 5-membered series, with a 5-fold dilution factor and top concentration of 50 nM). The association time for a given analyte dilution was two minutes. Immediately after the 50 nM BCMA injection, dissociation was monitored for 2 hours.
(§3) The sensorgrams were double-referenced and fit to a 1:1 Langmuir with mass transport kinetic titration model in BIAevaluation Software version 4.1.1 (GE Lifesciences, Piscataway, N.J.).
On the technique in general: In SPR one partner is held on a chip, and binding of the other changes the refractive index at the surface.
For orientation: Kd means the constant that tells how readily two partners part at equilibrium. The koff is a measure of how fast the partners let go of each other. A word on the kon: it is a measure of how fast the partners come together. B1 registered a Kd of 0.401 nM, a koff of 0.000583 s⁻¹ and a kon of 1.45e+06 M⁻¹ s⁻¹.
B2 registered a Kd of 0.157 nM, a koff of 0.000414 s⁻¹ and a kon of 2.63e+06 M⁻¹ s⁻¹.
B3 yielded a Kd of 0.158 nM, a koff of 0.000185 s⁻¹ and a kon of 1.17e+06 M⁻¹ s⁻¹.
Regarding B4, binding was put at a Kd of 1.95 nM, the koff was determined as 0.0121 s⁻¹ and the association rate constant (kon) turned out to be 6.22e+06 M⁻¹ s⁻¹.
For B5, the Kd is 1.77 nM, the koff is 0.00936 s⁻¹ and the kon was 5.28e+06 M⁻¹ s⁻¹.
B6 gave a Kd of 1.14 nM, a koff of 0.000786 s⁻¹ and a kon of 691000 M⁻¹ s⁻¹.
In turn, B7 came in with a Kd of 2.53 nM, an off-rate (koff) of 0.0119 s⁻¹ and a kon of 4.72e+06 M⁻¹ s⁻¹.
The molecule B8 came in with a Kd of 0.381 nM, a koff of 0.000831 s⁻¹ and a kon of 2.18e+06 M⁻¹ s⁻¹.
B9 displayed a Kd of 5.07 nM, a koff of 0.0113 s⁻¹ and an on-rate constant (kon) of 2.23e+06 M⁻¹ s⁻¹.
Molecule B10 registered a Kd of 0.95 nM, a koff of 0.00129 s⁻¹ and a kon of 1.36e+06 M⁻¹ s⁻¹.
As for B11, binding was put at a Kd of 0.203 nM, the koff is 0.000448 s⁻¹ and the kon stood at 2.21e+06 M⁻¹ s⁻¹.
For B12, in that order: 0.26 nM, 0.000661 s⁻¹ and 2.54e+06 M⁻¹ s⁻¹.
Take B13: the Kd is 0.472 nM, the koff is 0.000898 s⁻¹ and the kon turned out to be 1.9e+06 M⁻¹ s⁻¹.
On the same counts, the results for B14 are 0.939 nM, 0.00464 s⁻¹ and 4.95e+06 M⁻¹ s⁻¹.
Molecule B15 registered a Kd of 0.118 nM, a koff of 0.000158 s⁻¹ and a kon of 1.34e+06 M⁻¹ s⁻¹.
For B16, binding was characterised by a dissociation constant (Kd) of 0.22 nM, the koff worked out at 0.00033 s⁻¹ and the kon was 1.5e+06 M⁻¹ s⁻¹.
The molecule B17 yielded a Kd of 0.176 nM, a koff of 0.000324 s⁻¹ and a kon of 1.84e+06 M⁻¹ s⁻¹.

Another assay addresses T1, Human BCMA. Description: SPR, IgG immobilised, human BCMA analyte. On the procedure:
as §1, §2, §3
As to B1, the Kd came to 0.03 nM, the koff was 9.2e-05 s⁻¹ and the kon was 3.11e+06 M⁻¹ s⁻¹.
On the same counts, the results for B2 are 0.021 nM, 0.000255 s⁻¹ and 1.22e+07 M⁻¹ s⁻¹.
For B3, in that order: 0.075 nM, 0.000126 s⁻¹ and 1.69e+06 M⁻¹ s⁻¹.
With B4, binding was put at a Kd of 0.847 nM, the off-rate constant (koff) is 0.0154 s⁻¹ and the kon was found to be 1.82e+07 M⁻¹ s⁻¹.
As to B5, the Kd was found to be 0.545 nM, the koff amounted to 0.00825 s⁻¹ and the kon came out at 1.51e+07 M⁻¹ s⁻¹.
For B6, the affinity, expressed as Kd, was 0.128 nM; the koff turned out to be 0.000189 s⁻¹; the kon was 1.48e+06 M⁻¹ s⁻¹.
As for B7, the Kd turned out to be 0.964 nM, the koff was determined as 0.015 s⁻¹ and the kon was found to be 1.55e+07 M⁻¹ s⁻¹.
B8: the dissociation constant (Kd) worked out at 0.135 nM, the koff was determined as 0.000603 s⁻¹ and the kon was 4.47e+06 M⁻¹ s⁻¹.
As to B9, the affinity, expressed as Kd, was 0.188 nM; the koff is 0.000738 s⁻¹; the kon stood at 3.92e+06 M⁻¹ s⁻¹.
In the case of B10, the Kd amounted to 0.099 nM, the koff came out at 0.000308 s⁻¹ and the kon amounted to 3.1e+06 M⁻¹ s⁻¹.
As for B11, binding was put at a Kd of 0.033 nM, the off-rate constant (koff) turned out to be 0.000139 s⁻¹ and the kon worked out at 4.26e+06 M⁻¹ s⁻¹.
For B12, in that order: 0.049 nM, 0.000148 s⁻¹ and 3e+06 M⁻¹ s⁻¹.
Consider B13, for which binding was put at a Kd of 0.07 nM, the koff came out at 0.000315 s⁻¹ and the kon was found to be 4.51e+06 M⁻¹ s⁻¹.
For B14, the Kd was 0.407 nM, the koff is 0.0063 s⁻¹ and the kon was found to be 1.55e+07 M⁻¹ s⁻¹.
For B15, in that order: 0.09 nM, 0.000141 s⁻¹ and 1.56e+06 M⁻¹ s⁻¹.
Consider B16, for which the Kd turned out to be 0.065 nM, the koff is 0.00018 s⁻¹ and the kon is 2.75e+06 M⁻¹ s⁻¹.
Regarding B17, the affinity, expressed as Kd, was 0.054 nM; the koff stood at 0.000182 s⁻¹; the kon is 3.38e+06 M⁻¹ s⁻¹.

The values above are taken from US20160297884A1 (Pfizer, published 2016).
